Numbered stars: 1 amine (or outer) side, 2 acyl side, 3 side chain; on linkers, the order of the positions; unused ones are H or OH. Square brackets hold non-standard residues; d marks the D form. Ends that are not written are not given here. Cys(S-tBut) = S-t-butylthio-L-cysteine, CC(C)(C)SSC[C@H](N[*:1])C(=O)[*:2]; Cys(tBut) = S-t-butyl-L-cysteine, CC(C)(C)SC[C@H](N[*:1])C(=O)[*:2]
T1: ferroportin tagged at the C-terminus with green fluorescent protein (ECR293/Fpn-GFP cells)
T1 sequence (Q9NP59 whole entry, species assumed, looked up): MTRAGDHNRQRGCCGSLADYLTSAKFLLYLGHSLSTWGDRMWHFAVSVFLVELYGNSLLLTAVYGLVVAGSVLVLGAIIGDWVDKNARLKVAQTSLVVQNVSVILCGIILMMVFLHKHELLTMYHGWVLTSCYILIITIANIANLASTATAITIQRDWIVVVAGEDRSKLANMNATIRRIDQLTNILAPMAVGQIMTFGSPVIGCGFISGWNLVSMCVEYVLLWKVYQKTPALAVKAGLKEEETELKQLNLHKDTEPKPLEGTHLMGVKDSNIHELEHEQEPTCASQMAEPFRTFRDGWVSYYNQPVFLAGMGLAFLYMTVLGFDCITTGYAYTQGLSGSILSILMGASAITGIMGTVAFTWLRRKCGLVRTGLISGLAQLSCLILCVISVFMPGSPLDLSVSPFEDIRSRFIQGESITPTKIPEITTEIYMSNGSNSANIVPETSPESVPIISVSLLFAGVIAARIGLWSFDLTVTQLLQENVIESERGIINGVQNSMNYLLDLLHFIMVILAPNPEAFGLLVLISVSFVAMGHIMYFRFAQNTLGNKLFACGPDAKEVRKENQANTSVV

B1: Hep9C7-tBut (peptide)
peptide: DTHAPI[Cys(tBut)]IF-NH2
modifications: N-terminus assumed
SMILES: CC[C@H](C)[C@H](NC(=O)[C@H](CSC(C)(C)C)NC(=O)[C@@H](NC(=O)[C@@H]1CCCN1C(=O)[C@H](C)NC(=O)[C@H](Cc1c[nH]cn1)NC(=O)[C@@H](NC(=O)[C@@H](N)CC(=O)O)[C@@H](C)O)[C@@H](C)CC)C(=O)N[C@@H](Cc1ccccc1)C(N)=O
B2: Pr28 (peptide)
peptide: FICIPFHTD
modifications: not fully specified; N-terminal R5 = 2(Palmitoyl)-Dap(PEG11)-, Dap = diaminopropionic acid; retroinverted (D-amino acids); C-terminal amide
B3: riHep7ΔDT (peptide)
peptide: [dF][dI][dC][dI][dP][dF][dH]-NH2
modifications: N-terminus assumed
SMILES: CC[C@@H](C)[C@@H](NC(=O)[C@H](N)Cc1ccccc1)C(=O)N[C@H](CS)C(=O)N[C@@H](C(=O)N1CCC[C@@H]1C(=O)N[C@H](Cc1ccccc1)C(=O)N[C@H](Cc1c[nH]cn1)C(N)=O)[C@H](C)CC
B4: Pr23 (peptide)
peptide: FICIPFHTD
modifications: N-terminal R2 = Chenodeoxycholate-(PEG11)-; retroinverted (D-amino acids); C-terminal amide
B5: Hep9C7-SStBut (peptide)
peptide: DTHAPI[Cys(S-tBut)]IF-NH2
modifications: N-terminus assumed
SMILES: CC[C@H](C)[C@H](NC(=O)[C@H](CSSC(C)(C)C)NC(=O)[C@@H](NC(=O)[C@@H]1CCCN1C(=O)[C@H](C)NC(=O)[C@H](Cc1c[nH]cn1)NC(=O)[C@@H](NC(=O)[C@@H](N)CC(=O)O)[C@@H](C)O)[C@@H](C)CC)C(=O)N[C@@H](Cc1ccccc1)C(N)=O
B6: Pr24 (peptide)
peptide: FICIPFHTD
modifications: N-terminal R3 = Ursodeoxycholate-(PEG11)-; retroinverted (D-amino acids); C-terminal amide
B7: Hep25 (peptide)
peptide: DTHFPICIFCCGCCHRSKCGMCCKT
modifications: disulfide (positions not given here); also: 4 disulfide bonds, pairing not given here
B8: Cyc-3 (peptide)
peptide: HFPICIF
modifications: not fully specified; C-terminal F carries R1 = -CONH2-CH2-CH2-S; disulfide cyclized (double underlining lost)
B9: Pr27 (peptide)
peptide: FICIPFHTD
modifications: N-terminal R4 = Palmitoyl-(PEG11)-; retroinverted (D-amino acids); C-terminal amide

target: T1, ferroportin tagged at the C-terminus …; experiment: cell-based or functional assay

Binder | EC50 (nM); loss of fluorescence of Fpn-GFP cells, flow cytometry
FPIC-NH2 [Hep4 (Hep4-7)] | > 10000 nM
B1 | > 10000 nM
HFPIC-NH2 [Hep5 (Hep3-7)] | > 10000 nM
DTHAPICIF-NH2 [Hep9F4A] | > 3000 nM
DTHFPICI-NH2 [Hep8 (Hep1-8)] | 2000 nM
B2 | 3000 nM
B3 | 150 nM
FICIPFHTD (retroinverted: all D-amino acids; C-terminal amide) [Pr12] | 900 nM
HFPICI-NH2 [Hep6 (Hep3-8)] | 1000 nM
B4 | 100 nM
B5 | 700 nM
B6 | 1000 nM
B7 | 10 nM
DTHFPIAIF-NH2 [Hep9-C7A] | > 10000 nM
DTHFPISIF-NH2 [Hep9-C7S] | > 10000 nM
DTHFPIC-NH2 [Hep7 (Hep1-7)] | > 10000 nM
B8 | > 10000 nM
B9 | 20 nM
HFPICIF-NH2 [Hep7ΔDT (Hep3-9)] | 700 nM
DTHFPIAIFC-NH2 [Hep10 (Hep1-10 C7A)] | 100 nM

target: T1, ferroportin tagged at the C-terminus …; experiment: cell-based or functional assay; remark: another data set of the same source

Binder | EC50; loss of fluorescence of Fpn-GFP cells
B7 | 5 to 15 nM

Reference: patent US20120040894A1 (REGENTS OF THE UNIVERSITY OF CALIFONIRA, published 2012)
